Consider twelve molecules from US20200339699A1 (Innovent, published 2020).

The term EC50 denotes the concentration needed to bring the measured effect to its halfway point. Read a low EC50 as higher potency in that assay. As a reminder, the Kd is the constant that tells how readily two partners part at equilibrium. Low values mean tighter binding, high ones weaker binding. A word on the koff: it is the rate constant with which the complex falls apart. Read a high koff as a short-lived complex. One may read the kon as the rate constant with which the complex forms. Lower therefore signals slower complex formation.

B6: human BCMA on NCI-H929 cells (receptor)
chain: MLQMAGQCSQNEYFDSLLHACIPCQLRCSSNTPPLTCQRYCNASVTNSVKGTNAILWTCLGLSLIISLAVFVLMFLLRKINSEPLKDEFKNTGSGLLGMANIDLEKSRTGDEIILPRGLEYTVEECTCEDCIKSKPKVDSDHCFPLPAMEEGATILVTTKTNDYCKSLPAALSATEIEKSISAR
notes: BCMA-positive human multiple myeloma cell line NCI-H929 (ATCC CRL-9068); also called B-cell maturation antigen; CD269

For test [1], the target named is B6. The test is described as follows: flow cytometry on NCI-H929 cells, yeast-expressed antibody. The method, then:
The method is specifically as follows: [0293] 1. A human NCI-H929 (ATCC, CRL-9068) cell suspension was taken, adjusted to a cell density of 2×10⁶ cells/mL, and added to a 96-well microplate at 100 μL/well. The cell suspension was centrifuged at 400 G for 5 min and the supernatant was removed. [0294] 2. The anti-BCMA antibody solution was serially diluted in 3-fold gradient in PBS containing 0.1% bovine serum albumin (BSA) from a concentration of 400 nM for a total of 12 points, 100 μL of the dilution of the antibody was added to each well, and then the plate was incubated at 4° C. for 30 min [0295] 3. The mixture was centrifuged at 400 G for 5 min, and washed twice with PBS, and […] of a dilution of a secondary antibody (a phycoerythrin (PE) labeled goat anti-human IgG antibody, SouthernBiotech, final concentration: 5 μg/mL) in PBS (1% BSA) was added to each well. The plate was incubated at 4° C. for 30 min (in the dark). [0296] 4. Then the resulting solution was centrifuged at 400 G for 5min, and washed twice with PBS, and the cells were resuspended with 100 μL of PBS per well. Flow cytometry was performed on an Accuri C6 system (BD Bioscience) to detect PE positive signals, and MFI was calculated based on C6 software. The EC50 values were calculated using GraphPad software.
A general note: Flow cytometry measures light scatter and fluorescence of single cells or particles in a stream.

The target of test [2] is ADI-34848 scFv-hFc. The test is described as follows: BLI (ForteBio Octet Red96), scFv-hFc on AHC sensors, human BCMA-His in solution. As for the experimental part:
The kinetic constants of the antibody molecules were determined based on the biofilm layer interferometry (BLI) of a fiber optic biosensor.
The Fortebio instrument model used in the experiment was Octet Red96, and a ForteBio affinity assay was performed according to the existing method (Estep, P et al., High throughput solution Based measurement of antibody-antigen affinity and epitope binning MAbs, 2013.5 (2): p. 270-8). The assay is specifically as follows: [0317] 1. Half an hour before the experiment, an appropriate number of AHC sensors were taken according to the number of samples and soaked in the SD buffer (50 mL PBS+0.1% BSA +0.05% Tween-20). [0318] 2. SD buffer, scFv-hFc antibodies and human BCMA-His antigens (ACRO BIOSYSTEMS, BCA-H522Y), each of 100 μL were added to a 96-well half-area black polystyrene microplate respectively. [0319] 3. The plates were arranged according to the positions of the samples, the positions of the sensors were selected, and the operation procedures were set as: Baseline, Loading ˜1 nm, Baseline, Association, and Dissociation, each running for a time depending on the binding and dissociation rates of the sample, at a rotation speed of 1,000 rpm and a temperature of 30° C. [0320] 4.

The target of test [3] is ADI-34848 scFv-hFc. Briefly: flow cytometry on NCI-H929 cells, scFv-hFc.

B1: ADI-34860 (antibody, V domains shown)
VH: QLQLQESGPGLVKPSETLSLTCTVSGGSISSSSYYWGWIRQPPGKGLEWIGSISYSGSTYYNPSLKSRVTISVDTSKNQFSLKLSSVTAADTAVYYCARDRGDTILDVWGQGTMVTVSS
VL: DIQMTQSPSSLSASVGDRVTITCRASQSISSYLNWYQQKPGKAPKLLIYAASSLQSGVPSRFSGSGSGTDFTLTISSLQPEDFATYYCQQKYDLLTFGGGTKVEIK
notes: Yeast-expressed fully human antibody purified on protein A
The molecule B1 displayed an EC50 in test [1] of 144 nM.

B2: ADI-34861 (antibody, V domains shown)
VH: QLQLQESGPGLVKPSETLSLTCTVSGGSISSSSYYWGWIRQPPGKGLEWIGSISYSGSTYYNPSLKSRVTISVDTSKNQFSLKLSSVTAADTAVYYCARDRGDTILDVWGQGTMVTVSS
VL: DIQMTQSPSSLSASVGDRVTITCRASQSISRYLNWYQQKPGKAPKLLIYAASSLQSGVPSRFSGSGSGTDFTLTISSLQPEDFATYYCQQKYFDITFGGGTKVEIK
notes: as for B1
In test [1], B2 gave an EC50 of 65.1 nM.

B3: human BCMA-His (receptor)
chain: MLQMAGQCSQNEYFDSLLHACIPCQLRCSSNTPPLTCQRYCNASVTNSVKGTNA
notes: Bought antigen (ACRO BIOSYSTEMS, BCA-H522Y); probably only the extracellular domain stood in the assay; also called hBCMA-His; monovalent human BCMA; not shown: His tag
As for B3, in the test with ADI-34848 scFv-hFc [2], the dissociation constant (Kd) was determined as 71.1 nM, the koff worked out at 0.0145 s⁻¹ and the kon turned out to be 204000 M⁻¹ s⁻¹.

B4: ADI-34854 (antibody, V domains shown)
VH: QVQLVESGGGVVQPGRSLRLSCAASGFTFSSYGMHWVRQAPGKGLEWVAVISYEGSNKYYADSVKGRFTISRDNSKNTLYLQMNSLRAEDTAVYYCARDTSSYGDASYGMDVWGQGTTVTVSS
VL: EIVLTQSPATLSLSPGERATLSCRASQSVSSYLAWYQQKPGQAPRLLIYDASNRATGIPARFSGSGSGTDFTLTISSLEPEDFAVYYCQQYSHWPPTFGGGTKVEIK
notes: as for B1
As for B4, the EC50 in test [1] was determined as 83.2 nM.

B5: ADI-34846 (antibody, V domains shown)
VH: QVQLVQSGAEVKKPGSSVKVSCKASGGTFSNYAISWVRQAPGQGLEWMGGIIPIFGTANYAQKFQGRVTITADESTSTAYMELSSLKSEDTAVYYCARGSGYYSSWLFDIWGQGTMVTVSS
VL: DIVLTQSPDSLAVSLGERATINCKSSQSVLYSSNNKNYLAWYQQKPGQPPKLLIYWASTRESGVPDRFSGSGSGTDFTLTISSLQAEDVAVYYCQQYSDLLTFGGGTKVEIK
notes: as for B1
In test [1], B5 showed an EC50 of 136 nM.

Take B6: in the test with ADI-34848 scFv-hFc [3], the binding result was “binds”.

B7: ADI-34848 (antibody, V domains shown)
VH: EVQLLESGGGLVQPGGSLRLSCAASGFTFDDYAMHWVRQAPGKGLEWVSGISWSSGSIGYADSVKGRFTISRDNAKNSLYLQMNSLRAEDTAVYYCAKDSPRRDSFGSIAFDIWGQGTMVTVSS
VL: not shown
notes: as for B1
Turning to B7, the EC50 in test [1] was found to be 24.8 nM.

B8: ADI-34849 (antibody, V domains shown)
VH: EVQLVESGGGLVQPGRSLRLSCAASGFTFDDYAMHWVRQAPGKGLEWVSGISWSSGSIGYADSVKGRFTISRDNAKNSLYLQMNSLRAEDTAVYYCAKDSPRRDSFGSIAFDIWGQGTMVTVSS
VL: EIVLTQSPATLSLSPGERATLSCRASQSVSSYLAWYQQKPGQAPRLLIYDASKRATGIPARFSGSGSGTDFTLTISSLEPEDFAVYYCQQASALPLTFGGGTKVEIK
notes: as for B1
As to B8, in test [1], a half-maximal effect (EC50) was put at 9.11 nM.

B9: ADI-34850 (antibody, V domains shown)
VH: EVQLVESGGGLVQPGRSLRLSCAASGFTFDDYAMHWVRQAPGKGLEWVSGISWSSGSIGYADSVKGRFTISRDNAKNSLYLQMNSLRAEDTAVYYCAKDSPRRDSFGSIAFDIWGQGTMVTVSS
VL: EIVMTQSPATLSVSPGERATLSCRASQSVGSNLAWYQQKPGQAPRLLIYGASTRATGIPARFSGSGSGTEFTLTISSLQSEDFAVYYCQQSVNLPITFGGGTKVEIK
notes: as for B1
For B9, it took 12.1 nM to reach a half-maximal effect in test [1] (EC50). The EC50 values of the last two molecules are within 1.5-fold of each other.

B10: ADI-34857 (antibody, V domains shown)
VH: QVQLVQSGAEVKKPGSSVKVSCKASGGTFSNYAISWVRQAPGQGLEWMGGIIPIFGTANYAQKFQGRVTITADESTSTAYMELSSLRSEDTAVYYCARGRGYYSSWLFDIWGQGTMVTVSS
VL: DIQMTQSPSSLSASVGDRVTITCQASQDITNYLNWYQQKPGKAPKLLIYDASNLETGVPSRFSGSGSGTDFTFTISSLQPEDIATYYCQQAFDLITFGGGTKVEIK
notes: as for B1
Consider B10, for which, in test [1], the midpoint of the response, the EC50, lay at 25.2 nM.

B11: ADI-34832 (antibody, V domains shown)
VH: QITLKESGPTLVKPTQTLTLTCTFSGFSLSTSGVGVGWIRQPPGKALEWLALIYWNDEKRYSPSLKSRLTITKDTSKNQVVLTMTNMDPVDTAVYYCARDPGEQLQVFDYWGQGTLVTVSS
VL: DIQMTQSPSSVSASVGDRVTITCRASQGISSWLAWYQQKPGKAPKLLIYAASSLQSGVPSRFSGSGSGTDFTLTISSLQPEDFATYYCQQTLSLPITFGGGTKVEIK
notes: as for B1
For B11, in test [1], the 50% effective concentration (EC50) came to 34.1 nM.

B12: ADI-34859 (antibody, V domains shown)
VH: QLQLQESGPGLVKPSETLSLTCTVSGGSISSSSYYWGWIRQPPGKGLEWIGSISYSGSTYYNPSLKSRVTISVDTSKNQFSLKLSSVTAADTAVYYCARDRGDTILDVWGQGTMVTVSS
VL: DIQMTQSPSSLSASVGDRVTITCRASQSINSYLNWYQQKPGKAPKLLIYAASSLQSGVPSRFSGSGSGTDFTLTISSLQPEDFATYYCQQKASAPITFGGGTKVEIK
notes: as for B1
In turn, B12 displayed a concentration for a half-maximal effect (EC50) in test [1] of 85.8 nM.
